Laboratory results published in the supplement of paper PMC9170038.

System: MS2 coat protein
Experiment: apparent KD of MS2 coat protein; higher = weaker reporter binding
Settings: Eterna round: R101
Description: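 RNA-MaP: designed FMN/MS2 RNA switches (84 nt design region) are transcribed on-chip within common flanks and titrated with SNAP-549-labelled MS2 coat protein (about 1-3000 nM) in 100 mM Tris pH 7.5, 80 mM KCl, 4 mM MgCl2, without or with 200 uM FMN. Median apparent KD per design; activation ratio = KD,OFF / KD,ON.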

AAAGAUUUUUAAGGAUAUGACUCCGAAACGGAGUCAGAAGGUGAGGAUCACCCACCUAGCUCAGCGUCGAAAGACGCUGAGCAA [#SharedSequence ExNG1 - 24] (puzzle (switch architecture): Exclusion NG 1)
apparent KD of MS2 coat protein (input ligand: FMN 200 uM): 11 nM
apparent KD of MS2 coat protein (input ligand: none): 8.75 nM

AAAUAACUCGAAGGAUAUGACCCUCGAGGUGACUAAAAGUCACCUCGAGGGUCAGAAGGUCGAGGAUCACCCGACCUAGUGAAA [#SharedSequence SLExNG1: 8] (puzzle (switch architecture): Small Loop Exclusion NG 1)
apparent KD of MS2 coat protein (input ligand: FMN 200 uM): 65.9 nM
apparent KD of MS2 coat protein (input ligand: none): 10.3 nM

AAAUAACUUGAAGGAUAUGACCCUCGAGGUGACUAAAAGUCACCUCGAGGGUCAGAAGGUCGAGGAUCACCCGACCAAAUAAAU [#SharedSequence SLExNG1: 10] (puzzle (switch architecture): Small Loop Exclusion NG 1)
apparent KD of MS2 coat protein (input ligand: FMN 200 uM): 11.2 nM
apparent KD of MS2 coat protein (input ligand: none): 10.9 nM

AAGUGAAAUCAGAAGGCGUGGACGAAACGUCCACGAGGAUAUGAGGAUCACCCAUAUCAGGUCAGCCUGCAAAGCAGGCUGACC [#SharedSequence - IExNG1: 5-2] (puzzle (switch architecture): Inverted Exclusion NG 1)
apparent KD of MS2 coat protein (input ligand: FMN 200 uM): 537 nM
apparent KD of MS2 coat protein (input ligand: none): 30.2 nM

AAGUGAAAUCAGAAGGCGUGGACGAAACGUCCACGAGGAUAUGAGGAUCACCCAUGUCAGGUCAGCCUGCAAAGCAGGCUGACC [#SharedSequence - IExNG1: 6-1] (puzzle (switch architecture): Inverted Exclusion NG 1)
apparent KD of MS2 coat protein (input ligand: FMN 200 uM): 259 nM
apparent KD of MS2 coat protein (input ligand: none): 66.2 nM

AAUAAAGAUCCUAGAGGAUCACCCUAGGAUAUGAGGCUGCACCUCGGAUAAUCCGAGGUGCAGCCUCAGAAGGAGGAAAUAAAU [#SharedSequence - SLExNG3: 5-2] (puzzle (switch architecture): Small Loop Exclusion NG 3)
apparent KD of MS2 coat protein (input ligand: FMN 200 uM): 25.8 nM
apparent KD of MS2 coat protein (input ligand: none): 11.6 nM

AAUAAUUCUUAAGGAUAUCAGUGGCAAAGCCACUGAGAAGGUGAGGAUCACCCACCUACGUGACGCUGGAAACAGCGUCACGAA [#SharedSequence ExNG1 - 30] (puzzle (switch architecture): Exclusion NG 1)
apparent KD of MS2 coat protein (input ligand: FMN 200 uM): 23.1 nM
apparent KD of MS2 coat protein (input ligand: none): 16.2 nM

AAUUAAAUCCUAGGAUAUCAGUGGCAAAGCCACUGAGAAGGAGGAUCACCCUUUCAAACGUGACGCUGGAAACAGCGUCACGAA [#SharedSequence - ExNG1-18] (puzzle (switch architecture): Exclusion NG 1)
apparent KD of MS2 coat protein (input ligand: FMN 200 uM): 444 nM
apparent KD of MS2 coat protein (input ligand: none): 699 nM

AGACCUGCUCAGAAGGCGGAAACGAGGCUGGAAACAGCCUCGAAUUAAGAUCUUCGAGGAUCACCCGAGGAUAUGAGCAGGUCA [#SharedSequence - IExNG2: 14] (puzzle (switch architecture): Inverted Exclusion NG 2)
apparent KD of MS2 coat protein (input ligand: FMN 200 uM): 593 nM
apparent KD of MS2 coat protein (input ligand: none): 60.7 nM

AGGAGAAAUGUAGGAUAUGGGCGGGCGUAUGGGCAAAGCGCAUACGCCCGCCCAGAAGGACAUGAGGAUCACCCAUGUUUCCCU [#Lowering the energy 2] (puzzle (switch architecture): Small Loop Exclusion NG 1)
apparent KD of MS2 coat protein (input ligand: FMN 200 uM): 13.8 nM
apparent KD of MS2 coat protein (input ligand: none): 11.7 nM

AGUCGGAGCAGAGGAUAUUACAUGAGGAUCACCCAUGUAUGAACCAAUAGCUGGAAACAGCAAUGUAAGAAGGCUGCUCCGACA (puzzle (switch architecture): Exclusion NG 2)
apparent KD of MS2 coat protein (input ligand: FMN 200 uM): 169 nM
apparent KD of MS2 coat protein (input ligand: none): 12.9 nM

AGUGUCAUCGAGAAGGCCUCAACAUGAGGAUCACCCAUUUUGAAAAGUGGGAGGAUAUCGAUGAUACAGCUACGUUUCGUAGCA [salish99_InSLSSNG1_023 #HINGE] (puzzle (switch architecture): Inverted Small Loop Same State NG 1)
apparent KD of MS2 coat protein (input ligand: FMN 200 uM): 132 nM
apparent KD of MS2 coat protein (input ligand: none): 107 nM

AUAUGAUUAAGAGGAUAUAUACAACAUGAGGAUCACCCAUGUACCCAUGUAGUAGAAGGUUUAUUUUUAUAUAAUAAUAUAAUU [AstrosLoopssng1#12] (puzzle (switch architecture): Small Loop Same State NG 1)
apparent KD of MS2 coat protein (input ligand: FMN 200 uM): 61.4 nM
apparent KD of MS2 coat protein (input ligand: none): 82.9 nM

CCAGUUCUGGCAUCCUUAUUACAUGAGGAUCACCCAUGUUGUGAGGAUAUCCCAACCCACGGUCAGGAGAAGGCACAUAGAGGG [Eduscebira] (puzzle (switch architecture): Exclusion NG 3)
apparent KD of MS2 coat protein (input ligand: FMN 200 uM): 5.37 nM
apparent KD of MS2 coat protein (input ligand: none): 5.89 nM

CCGACGACUUAGAAGGCACUCGCAUAAUGCGAGUGAGGAUAUGAGGAUCACCCAUAUCAACGUCGGAGUCACCGAAACGGUGAC [#SharedSequence - IEx NG 4-2] (puzzle (switch architecture): Inverted Exclusion NG 1)
apparent KD of MS2 coat protein (input ligand: FMN 200 uM): 7.98 nM
apparent KD of MS2 coat protein (input ligand: none): 8.45 nM

CCGACGCUUCAGAAGGCACUCGCAUAAUGCGAGUGAGGAUAUGAGGAUCACCCAUAUCAACGUCGGAGUCACCGAAACGGUGAC [#SharedSequence - IEx NG 2-2] (puzzle (switch architecture): Inverted Exclusion NG 1)
apparent KD of MS2 coat protein (input ligand: FMN 200 uM): 14.4 nM
apparent KD of MS2 coat protein (input ligand: none): 8.54 nM

CGCUAUUACAUGAGGAUCACCCAUGUAUACAUGGGAUUGUCGUAGGAUAUGCAGAAGAUUAAAGUGCAGAAGGACGGUAUAGCG [JR #DistanceClose #Static #StaticP #NP SSNG3 Sub068] (puzzle (switch architecture): Same State NG 3)
apparent KD of MS2 coat protein (input ligand: FMN 200 uM): 1.03 nM
apparent KD of MS2 coat protein (input ligand: none): 3.46 nM

CUGGUUGUCGUAGGAUAUGUAGGAUAUUCCUACAUGAGGAUCACCCAUGUUCGCAUGGAAGAAGGACAGAAGGACGAUGACCAC [salish99_SSNG2_013 #endbits investigation] (puzzle (switch architecture): Same State NG 2)
apparent KD of MS2 coat protein (input ligand: FMN 200 uM): 9.19 nM
apparent KD of MS2 coat protein (input ligand: none): 1050 nM

GGAGAUACAUGAGGAUCACCCAUGUAGGAUAUAUAGUAUAUAUAUGGCGAAAGCCAUAUAUAUAUAUAGAAGGGCGUACACACC [#LOL-14] (puzzle (switch architecture): Small Loop Exclusion NG 3)
apparent KD of MS2 coat protein (input ligand: FMN 200 uM): 7.28 nM
apparent KD of MS2 coat protein (input ligand: none): 8.22 nM

GGAGAUACAUGAGGAUCACCCAUGUAGGAUAUCGGGCCCGUACCCGGCGAAAGCCGGGUACGGGCCGAGAAGGGCGUACACACC [#LOL-4] (puzzle (switch architecture): Small Loop Exclusion NG 3)
apparent KD of MS2 coat protein (input ligand: FMN 200 uM): 9.27 nM
apparent KD of MS2 coat protein (input ligand: none): 9.3 nM

GGAGAUACAUGAGGAUCACCCAUGUAGGAUAUCGGGCCCGUGCCCGGCGAAAGCCGGGCACGGGCCGAGAAGGGCGUACACACC [#LOL-3] (puzzle (switch architecture): Small Loop Exclusion NG 3)
apparent KD of MS2 coat protein (input ligand: FMN 200 uM): 7.66 nM
apparent KD of MS2 coat protein (input ligand: none): 8.78 nM
